To fix the notation:
B1: Protein C-ets-1 (Homo sapiens), P14921-1 (parent)
chain: MKAAVDLKPTLTIIKTEKVDLELFPSPDMECADVPLLTPSSKEMMSQALKATFSGFTKEQQRLGIPKDPRQWTETHVRDWVMWAVNEFSLKGVDFQKFCMNGAALCALGKDCFLELAPDFVGDILWEHLEILQKEDVKPYQVNGVNPAYPESRYTSDYFISYGIEHAQCVPPSEFSEPSFITESYQTLHPISSEELLSLKYENDYPSVILRDPLQTDTLQNDYFAIKQEVVTPDNMCMGRTSRGKLGGQDSFESIESYDSCDRLTQSWSSQSSFNSLQRVPSYDSFDSEDYPAALPNHKPKGTFKDYVRDRADLNKDKPVIPAAALAGYTGSGPIQLWQFLLELLTDKSCQSFISWTGDGWEFKLSDPDEVARRWGKRKNKPKMNYEKLSRGLRYYYDKNIIHKTAGKRYVYRFVCDLQSLLGYTPEELHAMLDVKPDADE

The variants in the assay derive from B1. Particulars: with cop1_human COP1, Q8NHY2.
cop1_human COP1, Q8NHY2, sequence (Q8NHY2 whole entry): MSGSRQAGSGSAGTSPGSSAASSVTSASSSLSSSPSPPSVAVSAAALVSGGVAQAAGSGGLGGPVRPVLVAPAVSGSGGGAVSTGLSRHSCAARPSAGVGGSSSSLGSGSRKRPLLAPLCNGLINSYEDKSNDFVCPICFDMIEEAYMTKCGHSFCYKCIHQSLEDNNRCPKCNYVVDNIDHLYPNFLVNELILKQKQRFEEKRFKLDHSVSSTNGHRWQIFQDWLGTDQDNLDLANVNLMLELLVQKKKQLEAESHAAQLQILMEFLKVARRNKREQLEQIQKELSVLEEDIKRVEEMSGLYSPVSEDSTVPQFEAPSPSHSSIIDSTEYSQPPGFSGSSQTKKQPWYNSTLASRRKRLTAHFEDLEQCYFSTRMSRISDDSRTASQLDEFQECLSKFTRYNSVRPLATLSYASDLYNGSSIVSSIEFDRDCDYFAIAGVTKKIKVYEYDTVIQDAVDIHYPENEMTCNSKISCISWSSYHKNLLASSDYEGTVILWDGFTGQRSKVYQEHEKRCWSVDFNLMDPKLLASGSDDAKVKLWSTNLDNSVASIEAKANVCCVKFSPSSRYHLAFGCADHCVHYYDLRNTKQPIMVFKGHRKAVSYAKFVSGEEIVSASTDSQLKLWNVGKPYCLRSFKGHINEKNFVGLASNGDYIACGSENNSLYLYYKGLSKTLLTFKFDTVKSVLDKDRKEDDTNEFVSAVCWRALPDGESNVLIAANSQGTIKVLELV
For MKAAVDLKPTLTIIKTEKVDLELFPSPDMECADVPLLTPSSKEMMSQALKATFSGFTKEQQRLGIPKDPRQWTETHVRDWVMWAVNEFSLKGVDFQKFCMNGAALCALGKDCFLELAPDFVGDILWEHLEILQKEDVKPYQVNGVNPAYPESRYTSDYFISYGIEHAQCVPPSEFSEPSFITESYQTLHPISSEELLSLKYENDYPSVILRDPLQTDTLQNDYFAIKQEVVTPDNMCMGRTSRGKLGGQDSFESIESYDSCDRLTQSWSSQSSFNSLQRVPDFDSFDSEDYPAALPNHKPKGTFKDYVRDRADLNKDKPVIPAAALAGYTGSGPIQLWQFLLELLTDKSCQSFISWTGDGWEFKLSDPDEVARRWGKRKNKPKMNYEKLSRGLRYYYDKNIIHKTAGKRYVYRFVCDLQSLLGYTPEELHAMLDVKPDADE [S282D;Y283F], the “effect of a mutation on the interaction” value is on record as “increasing interaction strength”.

Turning to MKAAVDLKPTLTIIKTEKVDLELFPSPDMECADVPLLTPSSKEMMSQALKATFSGFTKEQQRLGIPKDPRQWTETHVRDWVMWAVNEFSLKGVDFQKFCMNGAALCALGKDCFLELAPDFVGDILWEHLEILQKEDVKPYQVNGVNPAYPESRYTSDYFISYGIEHAQCVPPSEFSEPSFITESYQTLHPISSEELLSLKYENDYPSVILRDPLQTDTLQNDYFAIKQEVVTPDNMCMGRTSRGKLGGQDSFESIESYDSCDRLTQSWSSQSSFNSLQRVPSFDSFDSEDYPAALPNHKPKGTFKDYVRDRADLNKDKPVIPAAALAGYTGSGPIQLWQFLLELLTDKSCQSFISWTGDGWEFKLSDPDEVARRWGKRKNKPKMNYEKLSRGLRYYYDKNIIHKTAGKRYVYRFVCDLQSLLGYTPEELHAMLDVKPDADE [Y283F], the “effect of a mutation on the interaction” value was “increasing interaction strength”.

For MKAAVDLKPTLTIIKTEKVDLELFPSPDMECADVPLLTPSSKEMMSQALKATFSGFTKEQQRLGIPKDPRQWTETHVRDWVMWAVNEFSLKGVDFQKFCMNGAALCALGKDCFLELAPDFVGDILWEHLEILQKEDVKPYQVNGVNPAYPESRYTSDYFISYGIEHAQCVPPSEFSEPSFITESYQTLHPISSEELLSLKYENDYPSVILRDPLQTDTLQNDYFAIKQEVVTPDNMCMGRTSRGKLGGQDSFESIESYDSCDRLTQSWSSQSSFNSLQRVPAFDSFDSEDYPAALPNHKPKGTFKDYVRDRADLNKDKPVIPAAALAGYTGSGPIQLWQFLLELLTDKSCQSFISWTGDGWEFKLSDPDEVARRWGKRKNKPKMNYEKLSRGLRYYYDKNIIHKTAGKRYVYRFVCDLQSLLGYTPEELHAMLDVKPDADE [S282A;Y283F], the “effect of a mutation on the interaction” value is “increasing interaction strength”.

Source of the values: IntAct's records for PubMed 25117710.
